These results are taken from patent US20200270339A1.

Assay [1] has as its target human IL-15 complexed with the IL-15 Receptor-alpha (human) (UniProt P40933). In words: SPR. For orientation: Surface plasmon resonance follows binding to a sensor surface in real time, without labels.
Assay [2] has the same target. Kind of assay: cell-based or functional assay.
For assay [3] the target is unchanged. Kind of assay: SPR, antibody captured on Protein A chip.
For assay [4] the target is unchanged. Kind of assay: SPR, antibody captured on Protein A chip, IL-15 complex as analyte.

Where “and” joins values, the source holds several entries; their conditions need not be identical. Identical values can stand only once.

Chain of human IL-15 complexed with the IL-15 Receptor-alpha (human) (P40933 49-162 limits assumed, chain 1 of 2): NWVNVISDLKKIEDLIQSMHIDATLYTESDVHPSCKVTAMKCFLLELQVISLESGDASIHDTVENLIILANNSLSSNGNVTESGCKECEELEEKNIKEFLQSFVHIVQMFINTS
Chain of human IL-15 complexed with the IL-15 Receptor-alpha (human) (chain, as listed by the source limits assumed, chain 2 of 2): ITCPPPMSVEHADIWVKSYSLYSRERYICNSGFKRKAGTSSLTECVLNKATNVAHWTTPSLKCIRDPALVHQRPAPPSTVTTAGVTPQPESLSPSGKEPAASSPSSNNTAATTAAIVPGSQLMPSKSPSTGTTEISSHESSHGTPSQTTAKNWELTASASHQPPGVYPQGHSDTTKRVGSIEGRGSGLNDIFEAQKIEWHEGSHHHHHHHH
Chain of AMG714 (antibody) (VH): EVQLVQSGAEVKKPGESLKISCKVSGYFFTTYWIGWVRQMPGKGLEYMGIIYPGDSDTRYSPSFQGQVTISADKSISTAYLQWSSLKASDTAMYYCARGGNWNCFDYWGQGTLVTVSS
Chain of AMG714 (antibody) (VL): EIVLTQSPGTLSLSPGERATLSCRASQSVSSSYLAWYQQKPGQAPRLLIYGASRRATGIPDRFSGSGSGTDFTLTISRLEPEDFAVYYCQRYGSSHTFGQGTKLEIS

Regarding AMG714 (antibody), in assay [1], the dissociation constant Kd (commonly the free concentration of one partner at which half of the binding sites on the other are occupied at equilibrium, for simple one-to-one binding) was 1.86 nM and 1.82 nM; the off-rate (koff) (commonly the first-order rate constant of dissociation) was 0.000398 s⁻¹ and 0.00038 s⁻¹; the on-rate constant (kon) (usually the second-order rate constant of association) was 209000 M⁻¹ s⁻¹ and 214000 M⁻¹ s⁻¹. In assay [2], this substance had a Max IC50 (pM), NK-92 proliferation assay of 2650 pM; a Mean IC50 (pM), NK-92 proliferation assay of 1300 pM; a Min IC50 (pM), NK-92 proliferation assay of 378 pM. For the same substance, the fold faster dissociation rate than from Antibody 70 variants in assay [3] turned out to be 10 fold. The same substance showed a Kd in assay [4] of 1.84 nM.
